Measured values from US20020004226A1.

Biological target: soluble LDL receptor from the supernatant of IFN-gamma-treated human WISH cells (antiviral factor) (human) (UniProt P01130)
Assay: immunoaffinity chromatography on agarose-coupled C7; antiviral activity recovered in the pH 11 eluate (el.2 and el.3) relative to the load

UniProt P01130, sequence (P01130 25-313 limits assumed): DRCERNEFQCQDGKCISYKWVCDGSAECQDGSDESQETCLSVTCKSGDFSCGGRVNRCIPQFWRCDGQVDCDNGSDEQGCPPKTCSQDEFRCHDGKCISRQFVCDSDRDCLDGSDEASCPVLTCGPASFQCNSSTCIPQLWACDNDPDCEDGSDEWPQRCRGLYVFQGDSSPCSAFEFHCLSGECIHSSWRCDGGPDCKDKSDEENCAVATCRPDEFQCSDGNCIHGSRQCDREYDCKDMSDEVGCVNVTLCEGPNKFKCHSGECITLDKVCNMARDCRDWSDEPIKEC

recovery: 32%
Substance: monoclonal antibody C7 (hybridoma C7, ATCC CRL 1691)
